Consider 8 proteins from patent publication US20150307628.

Data set [1] in a line: co-expression in HEK293F, protein A purification, non-reducing SDS-PAGE, band density (ImageJ); mean ± S.E.M.
Data set [2] addresses T1, dummy-Fc heavy chain constant region with CH3B of mutant EW-RVT (S-S) (Q347R/S354C/D399V/F405T).
T1 chain: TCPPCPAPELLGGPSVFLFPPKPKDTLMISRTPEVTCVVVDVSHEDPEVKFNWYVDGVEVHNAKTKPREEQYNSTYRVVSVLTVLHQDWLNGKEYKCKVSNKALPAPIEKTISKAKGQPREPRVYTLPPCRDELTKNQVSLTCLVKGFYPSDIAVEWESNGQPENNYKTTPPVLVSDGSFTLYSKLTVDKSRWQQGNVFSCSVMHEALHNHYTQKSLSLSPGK
The description is as above.

Data set [3] concerns the target T2, dummy-Fc heavy chain constant region with CH3B of mutant EEW-RVT (Q347R/D399V/F405T).
T2 chain: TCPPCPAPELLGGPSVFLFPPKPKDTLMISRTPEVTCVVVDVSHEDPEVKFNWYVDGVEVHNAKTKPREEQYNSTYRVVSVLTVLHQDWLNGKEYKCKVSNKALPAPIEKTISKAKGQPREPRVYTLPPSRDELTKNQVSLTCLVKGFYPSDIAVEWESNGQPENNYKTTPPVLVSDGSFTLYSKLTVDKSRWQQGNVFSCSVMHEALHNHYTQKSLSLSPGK
The description is as above.

In data set [4] the target is T2, dummy-Fc heavy chain constant region …. Briefly: repeated expression and purification, SDS-PAGE band density (ImageJ).
For data set [5], the target named is T3, dummy-Fc heavy chain constant region with CH3B of mutant SW-WVT (S-S) (Y349C/E357W/D399V/F405T).
T3 chain: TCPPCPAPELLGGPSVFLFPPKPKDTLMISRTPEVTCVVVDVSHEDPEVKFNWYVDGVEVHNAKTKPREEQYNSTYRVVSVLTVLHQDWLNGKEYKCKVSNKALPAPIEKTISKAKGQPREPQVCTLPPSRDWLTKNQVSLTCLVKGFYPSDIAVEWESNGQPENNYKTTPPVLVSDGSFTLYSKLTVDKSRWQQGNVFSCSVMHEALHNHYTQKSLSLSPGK
Briefly: co-expression in HEK293F, protein A purification, non-reducing SDS-PAGE, band density (ImageJ); mean ± S.E.M.

B1: hAY4a scFv-Fc heavy chain with CH3A of mutant EW-RVT (S-S) (Y349C/K360E/K409W) (protein)
chain: TCPPCPAPELLGGPSVFLFPPKPKDTLMISRTPEVTCVVVDVSHEDPEVKFNWYVDGVEVHNAKTKPREEQYNSTYRVVSVLTVLHQDWLNGKEYKCKVSNKALPAPIEKTISKAKGQPREPQVCTLPPSRDELTENQVSLTCLVKGFYPSDIAVEWESNGQPENNYKTTPPVLDSDGSFFLYSWLTVDKSRWQQGNVFSCSVMHEALHNHYTQKSLSLSPGK
Protein B1 registered a Heterodimer yields, AA Homodimer (CH3A:CH3A) (scFv-Fc)2 in data set [1] of 0.6%. In data set [2], this protein came in with a Heterodimer yields, AB Heterodimer (CH3A:CH3B) (scFv-Fc)(Fc) of 94.2%.

B2: dummy-Fc heavy chain constant region with CH3B of mutant EW-RVT (Q347R/D399V/F405T) (protein)
chain: TCPPCPAPELLGGPSVFLFPPKPKDTLMISRTPEVTCVVVDVSHEDPEVKFNWYVDGVEVHNAKTKPREEQYNSTYRVVSVLTVLHQDWLNGKEYKCKVSNKALPAPIEKTISKAKGQPREPRVYTLPPSRDELTKNQVSLTCLVKGFYPSDIAVEWESNGQPENNYKTTPPVLVSDGSFTLYSKLTVDKSRWQQGNVFSCSVMHEALHNHYTQKSLSLSPGK
As to B2, the Heterodimer yields, BB Homodimer (CH3B:CH3B) (Fc)2 in data set [1] worked out at 1.6%.

B3: dummy-Fc heavy chain constant region with CH3B of mutant EEW-RVT (Q347R/D399V/F405T) (protein)
chain: TCPPCPAPELLGGPSVFLFPPKPKDTLMISRTPEVTCVVVDVSHEDPEVKFNWYVDGVEVHNAKTKPREEQYNSTYRVVSVLTVLHQDWLNGKEYKCKVSNKALPAPIEKTISKAKGQPREPRVYTLPPSRDELTKNQVSLTCLVKGFYPSDIAVEWESNGQPENNYKTTPPVLVSDGSFTLYSKLTVDKSRWQQGNVFSCSVMHEALHNHYTQKSLSLSPGK
Protein B3 had a Heterodimer yields, BB Homodimer (CH3B:CH3B) (Fc)2 in data set [1] of 6.3%.

B4: dummy-Fc heavy chain constant region with CH3B of mutant SW-WVT (S-S) (Y349C/E357W/D399V/F405T) (protein)
chain: TCPPCPAPELLGGPSVFLFPPKPKDTLMISRTPEVTCVVVDVSHEDPEVKFNWYVDGVEVHNAKTKPREEQYNSTYRVVSVLTVLHQDWLNGKEYKCKVSNKALPAPIEKTISKAKGQPREPQVCTLPPSRDWLTKNQVSLTCLVKGFYPSDIAVEWESNGQPENNYKTTPPVLVSDGSFTLYSKLTVDKSRWQQGNVFSCSVMHEALHNHYTQKSLSLSPGK
In data set [1], B4 showed a Heterodimer yields, BB Homodimer (CH3B:CH3B) (Fc)2 of 0.8%.

B5: dummy-Fc heavy chain constant region with CH3B of mutant EW-RVT (S-S) (Q347R/S354C/D399V/F405T) (protein)
chain: TCPPCPAPELLGGPSVFLFPPKPKDTLMISRTPEVTCVVVDVSHEDPEVKFNWYVDGVEVHNAKTKPREEQYNSTYRVVSVLTVLHQDWLNGKEYKCKVSNKALPAPIEKTISKAKGQPREPRVYTLPPCRDELTKNQVSLTCLVKGFYPSDIAVEWESNGQPENNYKTTPPVLVSDGSFTLYSKLTVDKSRWQQGNVFSCSVMHEALHNHYTQKSLSLSPGK
For B5, the Heterodimer yields, BB Homodimer (CH3B:CH3B) (Fc)2 in data set [1] amounted to 2.2%.

B6: hAY4a scFv-Fc heavy chain with CH3A of mutant EEW-RVT (Q347E/K360E/K409W) (protein)
chain: TCPPCPAPELLGGPSVFLFPPKPKDTLMISRTPEVTCVVVDVSHEDPEVKFNWYVDGVEVHNAKTKPREEQYNSTYRVVSVLTVLHQDWLNGKEYKCKVSNKALPAPIEKTISKAKGQPREPEVYTLPPSRDELTENQVSLTCLVKGFYPSDIAVEWESNGQPENNYKTTPPVLDSDGSFFLYSWLTVDKSRWQQGNVFSCSVMHEALHNHYTQKSLSLSPGK
B6 gave a Heterodimer yields, AB Heterodimer (CH3A:CH3B) (scFv-Fc)(Fc) in data set [3] of 90.9%. Besides, the “yield of formation of the heterodimer” value in data set [4] is given as “about 90 to 95%”.

B7: hAY4a scFv-Fc heavy chain with CH3A of mutant SW-WVT (S-S) (Y349S/S354C/K409W) (protein)
chain: TCPPCPAPELLGGPSVFLFPPKPKDTLMISRTPEVTCVVVDVSHEDPEVKFNWYVDGVEVHNAKTKPREEQYNSTYRVVSVLTVLHQDWLNGKEYKCKVSNKALPAPIEKTISKAKGQPREPQVSTLPPCRDELTKNQVSLTCLVKGFYPSDIAVEWESNGQPENNYKTTPPVLDSDGSFFLYSWLTVDKSRWQQGNVFSCSVMHEALHNHYTQKSLSLSPGK
In data set [5], B7 gave a Heterodimer yields, AB Heterodimer (CH3A:CH3B) (scFv-Fc)(Fc) of 98.6%.

B8: dummy-Fc heavy chain constant region with CH3B of mutant SW-WVT (E357W/D399V/F405T) (protein)
chain: TCPPCPAPELLGGPSVFLFPPKPKDTLMISRTPEVTCVVVDVSHEDPEVKFNWYVDGVEVHNAKTKPREEQYNSTYRVVSVLTVLHQDWLNGKEYKCKVSNKALPAPIEKTISKAKGQPREPQVYTLPPSRDWLTKNQVSLTCLVKGFYPSDIAVEWESNGQPENNYKTTPPVLVSDGSFTLYSKLTVDKSRWQQGNVFSCSVMHEALHNHYTQKSLSLSPGK
Take B8: in data set [1], the Heterodimer yields, BB Homodimer (CH3B:CH3B) (Fc)2 was 1.7%.
